Measurements: the supplement of paper PMC9233669
Variants at the floor of the assay were thinned out.

Legend:
[1] = system: biotinyl-Phe-oxazolone; assay: self-aminoacylation, catalytic enhancement (BFO) (fold over background); higher = more active; k-Seq, kA / k0A0; sequences stand for … in GGGAAUGGAUCCACAUCUACGAAUUC…UUCACUGCAGACUUGACGAAGCUG
Outline: (§1)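 Mutagenized RNA pools with a 21-nt variable region (0.43 μM) were reacted with each biotinyl-aminoacyl-oxazolone at 2–1250 μM for 90 minutes at room temperature, in 50 μL HEPES/NaCl/KCl/MgCl2/CaCl2 buffer containing 5% acetonitrile at pH 6.9–7.0. RNA captured on streptavidin was quantified by triplicate qPCR and by Illumina sequencing. The fraction reacted for each sequence was fit to a pseudo-first-order model with bootstrapping, and catalytic enhancement is the median kA divided by the uncatalyzed rate, taken as the low-activity peak of a bimodal Gaussian fit.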

[2] = system: biotinyl-Val-oxazolone; assay: self-aminoacylation, catalytic enhancement (BVO) (fold over background); higher = more active; k-Seq, kA / k0A0; sequences stand for … in GGGAAUGGAUCCACAUCUACGAAUUC…UUCACUGCAGACUUGACGAAGCUG
Outline: as §1

[3] = system: biotinyl-Ile-oxazolone; assay: self-aminoacylation, catalytic enhancement (BIO) (fold over background); higher = more active; k-Seq, kA / k0A0; sequences stand for … in GGGAAUGGAUCCACAUCUACGAAUUC…UUCACUGCAGACUUGACGAAGCUG
Outline: as §1

[4] = system: biotinyl-Leu-oxazolone; assay: self-aminoacylation, catalytic enhancement (BLO) (fold over background); higher = more active; k-Seq, kA / k0A0; sequences stand for … in GGGAAUGGAUCCACAUCUACGAAUUC…UUCACUGCAGACUUGACGAAGCUG
Outline: as §1

[5] = system: biotinyl-Trp-oxazolone; assay: self-aminoacylation, catalytic enhancement (BWO) (fold over background); higher = more active; k-Seq, kA / k0A0; sequences stand for … in GGGAAUGGAUCCACAUCUACGAAUUC…UUCACUGCAGACUUGACGAAGCUG
Outline: as §1

[6] = system: biotinyl-Met-oxazolone; assay: self-aminoacylation, catalytic enhancement (BMO) (fold over background); higher = more active; k-Seq, kA / k0A0; sequences stand for … in GGGAAUGGAUCCACAUCUACGAAUUC…UUCACUGCAGACUUGACGAAGCUG
Outline: as §1

| Sequence | self-aminoacylation [1] | self-aminoacylation [2] | self-aminoacylation [3] | self-aminoacylation [4] | self-aminoacylation [5] | self-aminoacylation [6] |
| --- | --- | --- | --- | --- | --- | --- |
| AUUACCCUGGCCAUUGAGUGA [Fam2.1 aminoacylation ribozyme variant] | 4.63 | 2.41 | 2.13 | 4.53 | 4.73 | 3.72 |
| CCACAUUUCAAGCAGUCGGUC [Fam1B.1 aminoacylation ribozyme variant] | 0.868 | 1.15 | 1.15 | 0.899 | 0.803 | 0.9 |
| AAGCUUGCUAAUAGACGCAAG [Fam3.1 aminoacylation ribozyme variant] | 1.7 | 0.9 | 0.821 | 0.763 | 0.574 | 1.51 |
| CUUACCCUGGCCAUCGAGUGA [Fam2.1 aminoacylation ribozyme variant] | 9.12 | 2.65 | 2.78 | 4.34 | 3.51 | 2.99 |
| CCACACUUCAAGCAAUCGUAC [Fam1B.1 aminoacylation ribozyme variant] | 1.29 | 0.669 | 0.473 | 0.58 | 0.546 | 0.351 |
| CUACUUCAAACUAACGGUCUG [Fam1A.1 aminoacylation ribozyme variant] | 0.924 | 0.75 | 0.778 | 0.796 | 0.665 | 0.787 |
| CUUACCCUGGUCAUCGAGCGA [Fam2.1 aminoacylation ribozyme variant] | 1.09 | 1.35 | 1.36 | 1.96 | 2.72 | 2.13 |
| CUCCUUCAAACAAUCGGUUUG [Fam1A.1 aminoacylation ribozyme variant] | 43.9 | 1.4 | 1.17 | 1.89 | 30.6 | 1.3 |
| GUACUUCAAACAAUCCGUCUG [Fam1A.1 aminoacylation ribozyme variant] | 2.63 | 1.24 | 1.49 | 1.45 | 2.16 | 1.02 |
| AUUCACCUAGGUCACCGGGAG [Fam2.2 aminoacylation ribozyme variant] | 5.9 | 1.43 | 1.49 | 1.77 | 1.81 | 2.05 |
| CUACUUCAAACACUCGGUCUU [Fam1A.1 aminoacylation ribozyme variant] | 1.56 | 1.74 | 1.71 | 1.49 | 1.18 | 1.81 |
| CUACACUUGAAGCAAUCGGUC [Fam1B.1 aminoacylation ribozyme variant] | 0.507 | 0.64 | 0.662 | 0.583 | 0.509 | 0.597 |
| CUACUUCAUACAAUCGGUAUG [Fam1A.1 aminoacylation ribozyme variant] | 0.628 | 0.731 | 0.431 | 0.468 | 0.34 | 0.508 |
| AUUACCCCGCUCAUCGAGUGA [Fam2.1 aminoacylation ribozyme variant] | 6.93 | 1.73 | 1.16 | 1.99 | 1.17 | 1.89 |
| CCACACUUCAAGCCACCGGUC [Fam1B.1 aminoacylation ribozyme variant] | 1.28 | 2.12 | 1.64 | 1.47 | 1.23 | 1.43 |
| CCACACUUCAAGCUAUCUGUC [Fam1B.1 aminoacylation ribozyme variant] | 0.636 | 0.612 | 0.468 | 0.362 | 0.371 | 0.284 |
| AUUCACCUAGGUCUUCCGGUG [Fam2.2 aminoacylation ribozyme variant] | 99.3 | 7 | 7.6 | 17.2 | 12.2 | 11.2 |
| AUUCUCCUAGGUCAUUGGGUG [Fam2.2 aminoacylation ribozyme variant] | 44 | 3.87 | 3.96 | 7.5 | 6.02 | 5.76 |
| AUUCGCCUAGGUGAUCGGGUG [Fam2.2 aminoacylation ribozyme variant] | 20.6 | 2.48 | 2.56 | 3.46 | 3.31 | 2.35 |
| UCACACUUAAAGCAAUCGGUC [Fam1B.1 aminoacylation ribozyme variant] | 0.642 | 0.844 | 0.86 | 0.761 | 0.575 | 0.737 |
| AUUACCCUUGUCAUCGAGGGA [Fam2.1 aminoacylation ribozyme variant] | 2.14 | 0.957 | 1.16 | 1.27 | 1.3 | 1.28 |
| AUUCACAUAGGUAAUCGGGUG [Fam2.2 aminoacylation ribozyme variant] | 34 | 2.6 | 2.65 | 5.2 | 4.8 | 4.85 |
| CCACACUUCAAGGAAUCCGUC [Fam1B.1 aminoacylation ribozyme variant] | 0.963 | 1.14 | 1.24 | 1.08 | 1.07 | 1.65 |
| CUACUUCCAACAAUCGGUCUA [Fam1A.1 aminoacylation ribozyme variant] | 0.924 | 0.892 | 0.839 | 0.701 | 0.598 | 0.632 |
| CCACAGUUCAAGCAAUCGGCC [Fam1B.1 aminoacylation ribozyme variant] | 0.924 | 3.95 | 2.11 | 2.6 | 3.18 | 2.66 |
| CCUCACUUCAAGCAAUCCGUC [Fam1B.1 aminoacylation ribozyme variant] | 1.94 | 0.873 | 0.935 | 0.736 | 0.756 | 0.613 |

| Sequence | self-aminoacylation [1] | self-aminoacylation [2] | self-aminoacylation [3] | self-aminoacylation [4] | self-aminoacylation [5] | self-aminoacylation [6] |
| --- | --- | --- | --- | --- | --- | --- |
| AUUAGCCGGGUCAUCGAGUGA [Fam2.1 aminoacylation ribozyme variant] | 40.5 | 4.51 | 3.91 | 6.37 | 7.69 | 6.22 |
| AUUACCCUGGUGAUCUAGUGA [Fam2.1 aminoacylation ribozyme variant] | 45.1 | 3.29 | 3.11 | 6.59 | 8.61 | 7.61 |
| AUUACCCUGCUCAUCGAGGGA [Fam2.1 aminoacylation ribozyme variant] | 0.691 | 0.905 | 1.02 | 0.858 | 0.707 | 0.947 |
| AUUACCCUAGUCGUCGAGUGA [Fam2.1 aminoacylation ribozyme variant] | 1.04 | 0.97 | 0.866 | 0.845 | 0.759 | 0.893 |
| CUAACUCAAACAAUCGGUCUG [Fam1A.1 aminoacylation ribozyme variant] | 3.32 | 0.742 | 0.761 | 0.716 | 1.24 | 0.648 |
| AUUACCCUCGGCAUCGAGUGA [Fam2.1 aminoacylation ribozyme variant] | 59.4 | 4.45 | 4.6 | 11.1 | 13.9 | 10.2 |
| UUUACCCUCGUCAUCGAGUGA [Fam2.1 aminoacylation ribozyme variant] | 10.2 | 2.35 | 2.46 | 2.68 | 4.02 | 3.25 |
| AGGUUUGCUAAUAGUCGGAAG [Fam3.1 aminoacylation ribozyme variant] | 12.2 | 0.944 | 1.22 | 1.02 | 3.12 | 1.24 |
| CCACACUUGAAGCAAUCGGUG [Fam1B.1 aminoacylation ribozyme variant] | 19.1 | 2.39 | 2.21 | 4.29 | 3.48 | 3.04 |
| AAGUUUGCUAAAAGUAGCAAG [Fam3.1 aminoacylation ribozyme variant] | 1.04 | 0.783 | 1.02 | 0.818 | 1.03 | 1.16 |
| ACUCAGCUAGGUCAUCGGGUG [Fam2.2 aminoacylation ribozyme variant] | 30.7 | 4.84 | 4.07 | 4.79 | 7.25 | 4.79 |
| AUUACCCUCGUCAUUGAGUGA [Fam2.1 aminoacylation ribozyme variant] | 11.2 | 2.55 | 2.22 | 3.99 | 5.16 | 4.09 |
| AUUCACCUAGGUCACCGGGUG [Fam2.2 aminoacylation ribozyme variant] | 32.2 | 3.55 | 3.51 | 6.44 | 4.63 | 4.95 |
| UUUACCCUGGUCAUCGAUUGA [Fam2.1 aminoacylation ribozyme variant] | 0.947 | 1.13 | 1.06 | 1.08 | 1.09 | 0.837 |
| AUUCACCUAGGUCGUCGGGAG [Fam2.2 aminoacylation ribozyme variant] | 0.385 | 1.36 | 0.982 | 1.27 | 0.943 | 0.924 |
| CUACUUCAAACAAUCAAUCUG [Fam1A.1 aminoacylation ribozyme variant] | 1.73 | 0.767 | 0.794 | 0.602 | 0.669 | 0.683 |
| CUACUUCAAACAAUCAGUGUG [Fam1A.1 aminoacylation ribozyme variant] | 2.23 | 0.972 | 0.867 | 0.745 | 0.975 | 0.936 |
| AUGCACCUUGGUCAUCGGGUG [Fam2.2 aminoacylation ribozyme variant] | 65.4 | 5.41 | 5.37 | 9.83 | 8.29 | 7.63 |
| CCAUCCUUCAAGCAAUCGGUC [Fam1B.1 aminoacylation ribozyme variant] | 16.4 | 1.19 | 1.13 | 1.3 | 9.38 | 1.15 |
| AUUCACCUAGGUCAACGGCUG [Fam2.2 aminoacylation ribozyme variant] | 0.492 | 1.09 | 1.12 | 1.17 | 0.872 | 1.07 |
| AAGUUUGAUAAUAGGCGCAAG [Fam3.1 aminoacylation ribozyme variant] | 0.836 | 0.551 | 0.704 | 0.59 | 0.74 | 0.523 |
| AUUACCCUGAUCAUCAAGUGA [Fam2.1 aminoacylation ribozyme variant] | 3.86 | 1.77 | 1.57 | 2.77 | 3.1 | 2.3 |
| AUUCACCUAAGUCAUCAGGUG [Fam2.2 aminoacylation ribozyme variant] | 11 | 2.07 | 2.23 | 3.53 | 3.31 | 3.1 |
| AUUCAUCUAGGUCAUCGGUUG [Fam2.2 aminoacylation ribozyme variant] | 1.07 | 1.24 | 1.15 | 1.3 | 1.13 | 1.25 |
| AUUCACCUAUGUAAUCGGGUG [Fam2.2 aminoacylation ribozyme variant] | 36.4 | 2.91 | 3.11 | 7.44 | 5.74 | 5.17 |
